According to patent US20190359693A1 (Janssen / Centocor, published 2019):

Assays:
[1] = target: HA of B/Harbin/7/94 (Yamagata) (influenza B virus); assay: cell-based or functional assay
[2] = target: HA of H5N1 A/Vietnam/1194/04 (influenza A virus); assay: cell-based or functional assay
[3] = target: HA of B/Massachusetts/02/12 (Yamagata) (influenza B virus); assay: cell-based or functional assay
[4] = target: HA of B/Harbin/7/94 (Yamagata) (influenza B virus); assay: cell-based or functional assay; remark: listed apart in the source
HA of B/Lee/40 = HA of B/Lee/40 (influenza B virus, UniProt P03460 16-552); assay: cell-based or functional assay
[5] = target: HA of B/Malaysia/2506/04 (Victoria) (influenza B virus); assay: cell-based or functional assay
[6] = target: T1, HA of H7N7 A/Netherlands/219/2003 (influenza A virus, UniProt P36346 19-563); assay: AlphaLISA competition vs CR9114
[7] = target: HA of H3N2 A/Victoria/210/09 (influenza A virus); assay: cell-based or functional assay
[8] = target: HA of B/Florida/04/2006 (Yamagata) (influenza B virus); assay: cell-based or functional assay
[9] = target: HA of H1N1 A/Solomon Islands/3/2006 (IVR 145) (influenza A virus); assay: cell-based or functional assay
[10] = target: HA of H7N7 A/Northern Shoveler/MPF518/08 (influenza A virus); assay: cell-based or functional assay
[11] = target: HA of H5N1 A/Indonesia/5/05 (influenza A virus); assay: cell-based or functional assay
[12] = target: HA of H11N9 A/Northern Pintail/MPC2085/07 (influenza A virus); assay: cell-based or functional assay
[13] = target: HA of H2N2 A/Guiyang/1/57 (influenza A virus); assay: cell-based or functional assay
[14] = target: HA of H4N6 A/Great Cormorant/MPB1683/06 (influenza A virus); assay: cell-based or functional assay
HA of H7N7 A/PR8 H7N7-NY = HA of H7N7 A/PR8 H7N7-NY (influenza A virus); assay: cell-based or functional assay
HA of H3N2 A/Fukui/45/04 = HA of H3N2 A/Fukui/45/04 (influenza A virus); assay: cell-based or functional assay
HA of H1N1 A/WSN/33 = HA of H1N1 A/WSN/33 (influenza A virus, UniProt P03454 18-565); assay: cell-based or functional assay
[15] = target: HA of H7N7 A/Common Teal/MPF139/07 (influenza A virus); assay: cell-based or functional assay
[16] = target: HA of H12N5 A/Env/MPK659/09 (influenza A virus); assay: cell-based or functional assay
[17] = target: HA of H5N2 A/Eurasian Wigeon/HK/MPF333/07 (influenza A virus); assay: cell-based or functional assay
[18] = target: HA of H14N5 A/Mallard/Astrakhan/263/1982 (influenza A virus); assay: cell-based or functional assay
[19] = target: HA of H8N4 A/Eurasian Wigeon/MPH571/08 (influenza A virus); assay: cell-based or functional assay
[20] = target: HA of H1N1 A/Christchurch/16/10 (influenza A virus); assay: cell-based or functional assay
[21] = target: HA of H7N9 A/Shanghai/1/13 (influenza A virus); assay: cell-based or functional assay
[22] = target: HA of H10N7 A/Chick/Germany/N/49 (influenza A virus); assay: cell-based or functional assay
[23] = target: HA of H1N1 A/Mississippi/03/01 274H (influenza A virus); assay: cell-based or functional assay
[24] = target: HA of H6N1 A/Taiwan/2/2013 (influenza A virus); assay: cell-based or functional assay
[25] = target: HA of H6N1 A/Eurasian Wigeon/MPG1884/09 (influenza A virus); assay: cell-based or functional assay
HA of H3N2 A/Perth/16/09 = HA of H3N2 A/Perth/16/09 (influenza A virus); assay: cell-based or functional assay
HA of H1N1 A/HK/54/98 = HA of H1N1 A/HK/54/98 (influenza A virus); assay: cell-based or functional assay
[26] = target: HA of H9N2 A/HK/466419/09 (influenza A virus); assay: cell-based or functional assay
[27] = target: HA of H1N2 A/Env/HK/MPU3156/05 (influenza A virus); assay: cell-based or functional assay
[28] = target: HA of H7N9 A/Shanghai/2/13 (influenza A virus); assay: cell-based or functional assay
[29] = target: HA of H2N2 A/WF/HK/MPU3156/05 (influenza A virus); assay: cell-based or functional assay
HA of H3N2 A/Aichi/2/68 = HA of H3N2 A/Aichi/2/68 (influenza A virus, UniProt P03437 17-566); assay: cell-based or functional assay
[30] = target: HA of H4 A/WF/HK/MPA892/06 (influenza A virus); assay: cell-based or functional assay
[31] = target: HA of H5N2 A/Eurasian Wigeon/MPF461/07 (influenza A virus); assay: cell-based or functional assay
[32] = target: HA of H2N2 A/AnnArbor/23/57 (influenza A virus); assay: cell-based or functional assay
[33] = target: HA of H10N8 A/Jiangxi/346/2013 (influenza A virus); assay: cell-based or functional assay
HA of H3N2 A/HK/1/68 [34] = target: T2, HA of H3N2 A/HK/1/68 (influenza A virus, UniProt Q91MA7 17-530); assay: cell-based or functional assay
[35] = target: HA of H6N8 A/Eurasian Wigeon/MPD411/07 (influenza A virus); assay: cell-based or functional assay
HA of H7N9 A/Anhui/1/13 = HA of H7N9 A/Anhui/1/13 (influenza A virus); assay: cell-based or functional assay
[36] = target: HA of H4N1 A/Northern Pintail/MPB1368/06 (influenza A virus); assay: cell-based or functional assay
[37] = target: HA of H9N2 A/Ck/HK/SSP176/09 (influenza A virus); assay: cell-based or functional assay
[38] = target: HA of H10N9 A/Northern Shoveler/MPE2531/08 (influenza A virus); assay: cell-based or functional assay
[39] = target: HA of H2N2 A/Env/HK/MPU3156/05 (influenza A virus); assay: cell-based or functional assay
[40] = target: T1, HA of H7N7 A/Netherlands/219/2003; assay: cell-based or functional assay
[41] = target: HA of H3N2 A/Johannesburg/33/94 (influenza A virus); assay: cell-based or functional assay
[42] = target: HA of H9N2 A/Great Cormorant/MP2934/04 (influenza A virus); assay: cell-based or functional assay
[43] = target: HA of H10N3 A/Common Teal/MPH11/08 (influenza A virus); assay: cell-based or functional assay
[44] = target: HA of H8N2 A/Env/MPJ1258/09 (influenza A virus); assay: cell-based or functional assay
HA of H3N2 A/HK/1/68 [45] = target: T2, HA of H3N2 A/HK/1/68; assay: BLI steady state

B1: SD1084 (VHH)
VHH: EVQLVESGGGLVQPGGSLKLSCAASGFTFSTSWMYWLRQAPGKGLEWVSVINTDGGTYYADSVKDRFTISRDNAKDTLYLQMSSLKSEDTAVYYCAKDWGGPEPTRGQGTQVTVSS
- hemagglutination inhibition titer [1]: 1.1 µg/mL
- hemagglutination inhibition titer [2]: > 50 µg/mL
- VNA titer [3]: 40 nM
- VNA titer [4]: 240 nM
- VNA titer (HA of B/Lee/40): > 1000 nM
- VNA titer [5]: 34.9 nM

B2: SD1038 (VHH)
VHH: EVQLVESGGGLVQPGGSLRLSCAVSISIFDIYAMDWYRQAPGKQRDLVATSFRDGSTNYADSVKGRFTISRDNAKNTLYLQMNSLKPEDTAVYLCHVSLYRDPLGVAGGMGVYWGKGALVTVSS
notes: llama sdAb
- pIC50 [6]: 7.5
- VNA titer [7]: 253 nM
- VNA titer [8]: > 1000 nM
- VNA titer [9]: 4.1 nM
- VNA titer [10]: 441 nM
- VNA titer [11]: 32.8 nM
- VNA titer [12]: 160 nM
- VNA titer [13]: 102 nM
- VNA titer [14]: 275 nM
- VNA titer (HA of H7N7 A/PR8 H7N7-NY): 80.6 nM
- VNA titer (HA of H3N2 A/Fukui/45/04): 632 nM
- VNA titer (HA of H1N1 A/WSN/33): 5 nM
- VNA titer [15]: 359 nM
- VNA titer [16]: > 1000 nM
- VNA titer [17]: 11 nM
- VNA titer [18]: 253 nM
- VNA titer [19]: 53.4 nM
- VNA titer [20]: 2.6 nM
- VNA titer [21]: 503 nM
- VNA titer [22]: 469 nM
- VNA titer [23]: 4.7 nM
- VNA titer [24]: 15.3 nM
- VNA titer [25]: 16.2 nM
- VNA titer (HA of H3N2 A/Perth/16/09): 253 nM
- VNA titer (HA of H1N1 A/HK/54/98): 16.5 nM
- VNA titer [26]: 700 nM
- VNA titer [27]: 40.5 nM
- VNA titer [28]: 239 nM
- VNA titer [29]: 31.4 nM
- VNA titer (HA of H3N2 A/Aichi/2/68): 127 nM
- VNA titer [30]: > 1000 nM
- VNA titer [31]: 18.8 nM
- VNA titer [32]: 33 nM
- VNA titer [33]: 239 nM
- VNA titer (HA of H3N2 A/HK/1/68 [34]): 40.2 nM
- VNA titer [35]: 13.2 nM
- VNA titer (HA of H7N9 A/Anhui/1/13): 253 nM
- VNA titer [36]: 485 nM
- VNA titer [37]: 90.8 nM
- VNA titer [38]: 327 nM
- VNA titer [39]: 23.2 nM
- VNA titer [40]: 181 nM
- VNA titer [41]: 443 nM
- VNA titer [42]: 105 nM
- VNA titer [43]: 301 nM
- VNA titer [44]: 58.7 nM
- Kd (HA of H3N2 A/HK/1/68 [45]): 44 nM
